Laboratory results from patent publication US20250101129A1, “AFFINITY SUBSTANCE, COMPOUND, AND ANTIBODY AND THEIR SALTS” (Ajinomoto Co., Inc., priority 2022, published 2025).

Assays:
[1] = biological target: EGFR on A-431 cells (EGFR-positive) (UniProt P00533); test: flow cytometry on A-431 cells, Alexa Fluor 488 anti-human IgG secondary antibody
[2] = biological target: Recombinant human EGFR-Fc (R&D Systems), biotinylated (human) (UniProt P00533); test: SPR Biacore T200, biotinylated human EGFR-Fc on Biotin CAPture chip, antibody as analyte, single cycle kinetics, 1:1 model
[3] = biological target: Biotinylated recombinant human FcRn (Immunitrack) (human) (UniProt P55899); test: SPR Biacore T200, biotinylated human FcRn on chip SA, association at pH 6.0, single cycle kinetics, 1:1 model; dissociated at pH 7.4
[4] = biological target: EGFR on A-431 cells (EGFR-positive) (UniProt P00533); test: flow cytometry, primary antibody then Alexa Fluor 488 goat anti-human IgG (H+L), A-431 cells; histogram peak at about 10^5, gate from a little above 10^4
[5] = biological target: HER2 on SKBR-3 cells (HER2-positive) (UniProt P04626); test: flow cytometry, primary antibody then Alexa Fluor 488 goat anti-human IgG (H+L), SKBR-3 cells; histogram peak between 10^3 and 10^4, gate from a little below 10^3
[6] = biological target: Recombinant human HER2-Fc (R&D Systems), biotinylated (human) (UniProt P04626); test: SPR Biacore T200, biotinylated human HER2-Fc on Biotin CAPture chip, antibody as analyte, single cycle kinetics, 1:1 model
[7] = biological target: Recombinant human HER2-Fc (R&D Systems), biotinylated (human) (UniProt P04626); test: SPR (Biacore T200), single cycle kinetics, ligand biotinylated HER2-Fc on Biotin CAPture chip, HBS-EP+, 1:1 binding model
[8] = biological target: EGFR on A-431 cells (EGFR-positive) (UniProt P00533); test: flow cytometry, primary antibody then Alexa Fluor 488 goat anti-human IgG (H+L), A-431 cells; histogram peak a little above 10^5, gate from a little above 10^4
[9] = biological target: Recombinant human PD-1-Fc (R&D Systems), biotinylated (human) (UniProt Q15116); test: SPR Biacore T200, biotinylated human PD-1-Fc on Biotin CAPture chip, antibody as analyte, single cycle kinetics, 1:1 model
Chain of Recombinant human PD-1-Fc (R&D Systems), biotinylated (human) (Q15116 25-167 limits assumed): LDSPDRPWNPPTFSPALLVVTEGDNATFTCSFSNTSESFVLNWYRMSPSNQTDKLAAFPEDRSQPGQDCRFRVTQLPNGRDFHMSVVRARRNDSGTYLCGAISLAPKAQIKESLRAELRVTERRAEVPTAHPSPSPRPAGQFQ

[10] = biological target: EGFR on A-431 cells (EGFR-positive) (UniProt P00533); test: flow cytometry on A431 (EGFR+) cells, fraction of cells in the positive gate, x axis EGFR-BL-1H, Alexa Fluor 488 anti-human IgG secondary antibody
[11] = biological target: HER2 on SKBR-3 cells (HER2-positive) (UniProt P04626); test: flow cytometry on SKBR3 (HER2+) cells, fraction of cells in the positive gate, x axis HER2-BL-1H, Alexa Fluor 488 anti-human IgG secondary antibody
[12] = biological target: PD-1 on CD3-activated human T cells (PD-1-positive) (human) (UniProt Q15116); test: flow cytometry on CD3-activated human T cells (PD-1+), fraction of cells in the positive gate, x axis PD-1-BL-1H, Alexa Fluor 488 anti-human IgG secondary antibody
Chain of PD-1 on CD3-activated human T cells (PD-1-positive) (human) (Q15116 25-288): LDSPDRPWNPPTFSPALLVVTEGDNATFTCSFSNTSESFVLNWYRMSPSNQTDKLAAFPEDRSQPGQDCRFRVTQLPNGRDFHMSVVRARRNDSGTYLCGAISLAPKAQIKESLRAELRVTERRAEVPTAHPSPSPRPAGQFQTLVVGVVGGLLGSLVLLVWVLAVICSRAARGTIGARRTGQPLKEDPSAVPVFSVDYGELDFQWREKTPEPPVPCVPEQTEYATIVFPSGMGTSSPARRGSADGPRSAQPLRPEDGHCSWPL

Row | Substance | percent of cells with fluorescence [1] [%] | Kd [2] [nM] | Kd [3] [nM] | percent of cells in the positive gate [4] [%] | percent of cells in the positive gate [5] [%] | Kd [6] [pM] | Kd [7] [pM] | percent of cells in the positive gate [8] [%] | Kd [9] [nM] | Positive cell (%) [10] [%] | Positive cell (%) [11] [%] | Positive cell (%) [12] [%]
1 | DAR1 bi-specific antibody (Cetuximab-Trastuzumab Fab) (M-3) (bispecific antibody) | > 98 | 0.3 | 2.6 | 98.2 | 97.3 | – | – | – | – | – | – | –
2 | DAR1 bi-specific antibody (Trastuzumab-Cetuximab Fab) (M-4) (bispecific antibody) | > 98 | – | 2.4 | – | 97.9 | < 1.9 | < 1.9 | 99.6 | – | – | – | –
3 | Tri-specific antibody (Pembrolizumab Fab-Cetuximab-Trastuzumab Fab) (M-2) | > 98 | – | 2.4 | – | – | – | – | – | 1.1 | 98.9 | 97.2 | 21.4
